# Source: patent publication US9156883B2, “Binding molecules for human factor VIII and factor VIII-like proteins” (DYAX CORP., priority 1999, dated 2015)
# Positions of bridges follow the written chain, without caps; N, C: chain ends. No end group written: not given here. *: point of attachment. NHNH2 = NN*
# Target: T1, native human factor VIII (nhfVIII) (Homo sapiens, UniProt P00451)
# T1 construct: native human factor VIII (nhfVIII); purchased American Diagnostica, Inc. (Greenwich, Conn.) #408 nat
# T1 sequence (P00451 20-1332 limits assumed): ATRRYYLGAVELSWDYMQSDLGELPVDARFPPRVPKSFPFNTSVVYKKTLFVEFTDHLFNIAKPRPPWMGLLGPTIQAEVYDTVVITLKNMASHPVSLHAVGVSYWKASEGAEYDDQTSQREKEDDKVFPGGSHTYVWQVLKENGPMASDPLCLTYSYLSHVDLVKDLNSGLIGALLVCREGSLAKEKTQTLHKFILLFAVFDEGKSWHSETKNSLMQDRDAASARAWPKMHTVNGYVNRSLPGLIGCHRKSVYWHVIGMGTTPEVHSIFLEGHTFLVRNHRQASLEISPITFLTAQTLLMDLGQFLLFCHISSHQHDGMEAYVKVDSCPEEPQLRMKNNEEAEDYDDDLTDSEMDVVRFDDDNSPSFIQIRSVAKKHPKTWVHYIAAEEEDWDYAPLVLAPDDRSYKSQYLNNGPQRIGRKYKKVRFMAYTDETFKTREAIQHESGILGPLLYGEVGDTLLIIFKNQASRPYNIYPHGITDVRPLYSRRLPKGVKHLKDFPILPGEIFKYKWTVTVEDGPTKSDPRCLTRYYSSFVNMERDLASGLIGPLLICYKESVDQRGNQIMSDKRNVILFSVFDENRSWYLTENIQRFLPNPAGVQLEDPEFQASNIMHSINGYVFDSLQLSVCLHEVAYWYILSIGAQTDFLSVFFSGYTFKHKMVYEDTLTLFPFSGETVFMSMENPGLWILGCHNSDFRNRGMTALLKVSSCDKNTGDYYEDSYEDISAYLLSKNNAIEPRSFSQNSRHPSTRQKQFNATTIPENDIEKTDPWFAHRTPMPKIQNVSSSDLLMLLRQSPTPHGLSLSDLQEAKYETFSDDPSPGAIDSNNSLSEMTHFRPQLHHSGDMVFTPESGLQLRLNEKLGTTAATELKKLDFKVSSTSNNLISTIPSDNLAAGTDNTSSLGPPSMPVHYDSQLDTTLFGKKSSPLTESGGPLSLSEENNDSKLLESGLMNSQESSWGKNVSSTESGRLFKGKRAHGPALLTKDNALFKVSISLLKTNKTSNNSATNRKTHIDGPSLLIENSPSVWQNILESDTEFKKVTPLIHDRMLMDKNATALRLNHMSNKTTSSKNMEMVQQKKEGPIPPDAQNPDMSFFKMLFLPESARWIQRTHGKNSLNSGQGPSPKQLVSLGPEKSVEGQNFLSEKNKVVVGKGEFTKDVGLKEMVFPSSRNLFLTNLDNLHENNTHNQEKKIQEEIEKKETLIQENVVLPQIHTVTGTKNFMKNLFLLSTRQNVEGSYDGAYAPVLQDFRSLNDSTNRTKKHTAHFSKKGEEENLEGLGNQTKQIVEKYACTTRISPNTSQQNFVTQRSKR
# T1 sequence (P00451 1668-2351 limits assumed): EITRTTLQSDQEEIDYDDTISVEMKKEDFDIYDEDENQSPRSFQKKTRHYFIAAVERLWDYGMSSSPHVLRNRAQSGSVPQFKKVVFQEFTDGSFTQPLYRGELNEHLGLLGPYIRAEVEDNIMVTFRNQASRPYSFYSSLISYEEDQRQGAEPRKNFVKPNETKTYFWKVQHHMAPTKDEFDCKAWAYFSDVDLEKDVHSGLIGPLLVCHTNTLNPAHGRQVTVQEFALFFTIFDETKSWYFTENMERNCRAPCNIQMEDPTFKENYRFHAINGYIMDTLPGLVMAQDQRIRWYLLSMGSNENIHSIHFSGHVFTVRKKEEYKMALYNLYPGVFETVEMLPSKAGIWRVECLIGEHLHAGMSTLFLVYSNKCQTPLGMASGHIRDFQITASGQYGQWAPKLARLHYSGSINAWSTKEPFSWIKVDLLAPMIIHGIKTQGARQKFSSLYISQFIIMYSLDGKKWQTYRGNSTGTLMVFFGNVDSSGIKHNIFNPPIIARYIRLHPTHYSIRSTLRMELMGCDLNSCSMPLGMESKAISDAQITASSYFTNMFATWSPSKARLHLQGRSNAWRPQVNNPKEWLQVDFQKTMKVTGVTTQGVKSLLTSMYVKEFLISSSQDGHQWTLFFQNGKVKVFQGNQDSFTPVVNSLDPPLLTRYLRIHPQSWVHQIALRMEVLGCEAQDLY
# Assay: Comparative batch binding and elution of nhfVIII with immobilized polypeptide ligands
# Details: batch procedure
# Procedure: For these experiments, nhfVIII was obtained from American Diagnostica, Inc. (Greenwich, Conn.; product #408 nat) in the form of a lyophilized powder containing stabilizing agents. The nhfVIII was reconstituted according to the manufacturer's instructions in a reconstituting buffer (72 mM NH4OAc, pH 6.3, 360 mM NaCl, 0.04% Tween 80 (Buffer 1).
# A commercial ELISA kit (IMUBIND fVIII ELISA kit, Product #884, American, Inc., Greenwich, Conn.) developed to detect factor VIII was used according to the manufacturer's specifications in order to detect both the REFACTO® and the nhfVIII targets. The kit employs a sandwich ELISA assay in which the target is captured by an immobilized monoclonal antibody and the captured target is detected with a second monoclonal antibody-horseradish peroxidase (HRP) conjugate. Addition of the peroxidase substrate and its subsequent reaction with the HRP produces a blue color (detected at 630 nm) which changes to yellow (detected at 450 nm) on addition of the 0.5N sulfuric acid stop solution. Color response is calibrated with factor VIII standards provided by the manufacturer.
# Following the pH 2 washes, the beads were washed once in PBS containing 0.05% azide and stored at 4° C.
# A sample of nhfVIII was diluted to a final concentration of 100 U/ml by addition of 2.32 ml H2O, 180 μl 1M NH4OAc, pH 6.3 (to 72 mM), and 1 μl Tween 80 (to 0.04%). REFACTO® stock solution was diluted to 100 U/ml in a modified Buffer 1, in which the NaCl concentration was reduced from […] to 330 mM.
# Immobilized peptides were tested for binding to nhFVIII in comparison with REFACTO®. […] Next, nhfVIII and REFACTO® solutions were mixed with regenerated affinity beads bearing the CS-454, CS-456, and CS-458 ligands in a comparative batch purification procedure.
row,Substance,binding and release of nhfVIII compared with a factor VIII-like polypeptide (in words)
1,AEGTGDFCWVFAFDHCHDPGPEGGGS-NHNH2 (disulfide 8-16 (inferred)) [CS-458],bind and release nhfVIII under similar conditions and with similar yields
2,AEGTGDFGCSWLFPCPFDPGPEGGGS-NHNH2 (disulfide 9-15 (inferred)) [CS-456],bind and release nhfVIII under similar conditions and with similar yields
3,AEGTGDHLCGAWFRPCDADPGPEGGGS-NHNH2 (disulfide 9-16 (inferred)) [CS-454],bind and release nhfVIII under similar conditions and with similar yields
